Measurements: IntAct's records for PubMed 31477895

B1: Ubiquitin carboxyl-terminal hydrolase 15 (Homo sapiens), Q9Y4E8 (parent)
chain: MAEGGAADLDTQRSDIATLLKTSLRKGDTWYLVDSRWFKQWKKYVGFDSWDKYQMGDQNVYPGPIDNSGLLKDGDAQSLKEHLIDELDYILLPTEGWNKLVSWYTLMEGQEPIARKVVEQGMFVKHCKVEVYLTELKLCENGNMNNVVTRRFSKADTIDTIEKEIRKIFSIPDEKETRLWNKYMSNTFEPLNKPDSTIQDAGLYQGQVLVIEQKNEDGTWPRGPSTPKSPGASNFSTLPKISPSSLSNNYNNMNNRNVKNSNYCLPSYTAYKNYDYSEPGRNNEQPGLCGLSNLGNTCFMNSAIQCLSNTPPLTEYFLNDKYQEELNFDNPLGMRGEIAKSYAELIKQMWSGKFSYVTPRAFKTQVGRFAPQFSGYQQQDCQELLAFLLDGLHEDLNRIRKKPYIQLKDADGRPDKVVAEEAWENHLKRNDSIIVDIFHGLFKSTLVCPECAKISVTFDPFCYLTLPLPMKKERTLEVYLVRMDPLTKPMQYKVVVPKIGNILDLCTALSALSGIPADKMIVTDIYNHRFHRIFAMDENLSSIMERDDIYVFEININRTEDTEHVIIPVCLREKFRHSSYTHHTGSSLFGQPFLMAVPRNNTEDKLYNLLLLRMCRYVKISTETEETEGSLHCCKDQNINGNGPNGIHEEGSPSEMETDEPDDESSQDQELPSENENSQSEDSVGGDNDSENGLCTEDTCKGQLTGHKKRLFTFQFNNLGNTDINYIKDDTRHIRFDDRQLRLDERSFLALDWDPDLKKRYFDENAAEDFEKHESVEYKPPKKPFVKLKDCIELFTTKEKLGAEDPWYCPNCKEHQQATKKLDLWSLPPVLVVHLKRFSYSRYMRDKLDTLVDFPINDLDMSEFLINPNAGPCRYNLIAVSNHYGGMGGGHYTAFAKNKDDGKWYYFDDSSVSTASEDQIVSKAAYVLFYQRQDTFSGTGFFPLDRETKGASAATGIPLESDEDSNDNDNDIENENCMHTN

Variants of: B1
Conditions: with syvn1_human SYVN1, Q86TM6
Sequence of syvn1_human SYVN1, Q86TM6 (Q86TM6 whole entry): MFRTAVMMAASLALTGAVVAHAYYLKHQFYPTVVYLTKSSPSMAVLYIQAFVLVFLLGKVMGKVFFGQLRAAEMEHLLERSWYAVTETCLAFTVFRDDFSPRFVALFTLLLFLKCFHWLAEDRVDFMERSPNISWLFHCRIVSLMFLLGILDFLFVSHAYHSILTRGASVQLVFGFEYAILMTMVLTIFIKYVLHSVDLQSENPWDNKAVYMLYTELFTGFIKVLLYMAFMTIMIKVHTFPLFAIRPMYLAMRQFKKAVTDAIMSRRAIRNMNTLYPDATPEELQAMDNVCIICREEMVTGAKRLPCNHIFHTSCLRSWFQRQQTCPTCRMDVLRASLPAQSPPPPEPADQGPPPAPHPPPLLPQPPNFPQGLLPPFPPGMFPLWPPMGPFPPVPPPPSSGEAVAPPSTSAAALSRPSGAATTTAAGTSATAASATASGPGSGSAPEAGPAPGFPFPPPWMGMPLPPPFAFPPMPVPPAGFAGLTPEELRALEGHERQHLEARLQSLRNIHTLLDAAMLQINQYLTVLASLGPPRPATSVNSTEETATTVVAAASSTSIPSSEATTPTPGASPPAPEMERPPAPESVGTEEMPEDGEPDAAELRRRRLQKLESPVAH

Effect of a mutation on the interaction, with no effect:
K21R
K228R
K154R
